Assay results from US20220332804A1 (CSL INNOVATION, published 2022).

What was measured:
Experiment in all cases: SPR, antibody captured, C2 as analyte;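 further: biacore at 37 °C, anti-C2 mAbs held by immobilised goat anti-human IgG, C2 alanine or serine mutants injected, double-referenced sensorgrams fitted to a 1:1 kinetic or steady-state model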
human C2 K430A = target: T1, human C2 K430A (human, UniProt P06681 21-752)
T1 sequence: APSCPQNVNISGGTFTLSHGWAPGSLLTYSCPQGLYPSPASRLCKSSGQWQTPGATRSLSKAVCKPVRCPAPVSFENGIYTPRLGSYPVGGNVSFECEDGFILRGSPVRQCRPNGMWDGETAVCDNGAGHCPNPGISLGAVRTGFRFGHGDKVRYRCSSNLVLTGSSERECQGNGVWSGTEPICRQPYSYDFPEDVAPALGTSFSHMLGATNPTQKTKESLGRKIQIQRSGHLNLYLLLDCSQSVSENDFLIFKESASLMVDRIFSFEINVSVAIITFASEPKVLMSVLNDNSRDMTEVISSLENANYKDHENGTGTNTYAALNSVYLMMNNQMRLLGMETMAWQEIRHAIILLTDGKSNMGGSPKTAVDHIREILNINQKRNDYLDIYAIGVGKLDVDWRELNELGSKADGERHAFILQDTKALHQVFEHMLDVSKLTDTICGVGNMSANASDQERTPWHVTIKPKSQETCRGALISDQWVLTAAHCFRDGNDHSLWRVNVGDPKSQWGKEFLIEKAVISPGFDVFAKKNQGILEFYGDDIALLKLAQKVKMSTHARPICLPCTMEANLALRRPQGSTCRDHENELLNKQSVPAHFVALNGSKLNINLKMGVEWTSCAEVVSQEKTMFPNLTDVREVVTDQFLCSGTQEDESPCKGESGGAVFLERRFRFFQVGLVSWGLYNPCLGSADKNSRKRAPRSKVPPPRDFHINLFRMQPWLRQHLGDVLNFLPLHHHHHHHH

human C2 A436S = target: T2, human C2 A436S (human, UniProt P06681 21-752)
T2 sequence: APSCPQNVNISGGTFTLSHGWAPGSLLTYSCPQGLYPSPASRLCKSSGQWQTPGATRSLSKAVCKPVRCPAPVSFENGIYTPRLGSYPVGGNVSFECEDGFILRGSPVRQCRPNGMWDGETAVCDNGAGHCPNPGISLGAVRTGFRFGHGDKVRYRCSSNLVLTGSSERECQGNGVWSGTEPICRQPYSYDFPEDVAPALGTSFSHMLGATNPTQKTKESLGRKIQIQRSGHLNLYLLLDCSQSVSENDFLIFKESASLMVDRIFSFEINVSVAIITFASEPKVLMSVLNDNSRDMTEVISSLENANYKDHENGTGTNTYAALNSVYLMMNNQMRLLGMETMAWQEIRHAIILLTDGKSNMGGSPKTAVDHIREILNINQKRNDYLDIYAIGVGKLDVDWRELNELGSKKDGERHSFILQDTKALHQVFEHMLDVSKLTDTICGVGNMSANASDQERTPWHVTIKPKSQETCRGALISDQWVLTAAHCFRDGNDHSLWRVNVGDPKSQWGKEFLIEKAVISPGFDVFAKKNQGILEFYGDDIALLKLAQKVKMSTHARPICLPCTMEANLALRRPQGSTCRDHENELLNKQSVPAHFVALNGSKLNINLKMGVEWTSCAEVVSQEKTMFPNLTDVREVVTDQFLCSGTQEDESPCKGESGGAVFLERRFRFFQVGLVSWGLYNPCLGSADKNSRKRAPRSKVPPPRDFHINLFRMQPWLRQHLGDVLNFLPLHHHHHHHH

human C2 H446A = target: T3, human C2 H446A (human, UniProt P06681 21-752)
T3 sequence: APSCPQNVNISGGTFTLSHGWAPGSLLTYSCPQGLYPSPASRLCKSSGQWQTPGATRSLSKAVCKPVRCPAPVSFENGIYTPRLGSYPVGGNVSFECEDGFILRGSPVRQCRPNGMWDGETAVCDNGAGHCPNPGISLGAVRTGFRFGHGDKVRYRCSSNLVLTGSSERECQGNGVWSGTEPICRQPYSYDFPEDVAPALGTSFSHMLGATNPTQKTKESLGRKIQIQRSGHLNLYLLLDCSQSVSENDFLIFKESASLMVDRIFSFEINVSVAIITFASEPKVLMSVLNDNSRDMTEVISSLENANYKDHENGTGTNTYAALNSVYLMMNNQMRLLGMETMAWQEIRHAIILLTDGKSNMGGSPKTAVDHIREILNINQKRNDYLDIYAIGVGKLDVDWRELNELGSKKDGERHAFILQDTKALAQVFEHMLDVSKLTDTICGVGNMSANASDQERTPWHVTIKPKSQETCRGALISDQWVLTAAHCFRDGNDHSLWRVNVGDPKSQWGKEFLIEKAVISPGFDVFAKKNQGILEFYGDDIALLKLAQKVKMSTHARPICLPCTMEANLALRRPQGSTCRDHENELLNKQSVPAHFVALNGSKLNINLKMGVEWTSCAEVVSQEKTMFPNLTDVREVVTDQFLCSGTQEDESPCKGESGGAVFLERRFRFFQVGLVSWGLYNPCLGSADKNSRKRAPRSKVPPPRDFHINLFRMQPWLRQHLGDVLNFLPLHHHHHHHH

human C2 N467A = target: T4, human C2 N467A (human, UniProt P06681 21-752)
T4 sequence: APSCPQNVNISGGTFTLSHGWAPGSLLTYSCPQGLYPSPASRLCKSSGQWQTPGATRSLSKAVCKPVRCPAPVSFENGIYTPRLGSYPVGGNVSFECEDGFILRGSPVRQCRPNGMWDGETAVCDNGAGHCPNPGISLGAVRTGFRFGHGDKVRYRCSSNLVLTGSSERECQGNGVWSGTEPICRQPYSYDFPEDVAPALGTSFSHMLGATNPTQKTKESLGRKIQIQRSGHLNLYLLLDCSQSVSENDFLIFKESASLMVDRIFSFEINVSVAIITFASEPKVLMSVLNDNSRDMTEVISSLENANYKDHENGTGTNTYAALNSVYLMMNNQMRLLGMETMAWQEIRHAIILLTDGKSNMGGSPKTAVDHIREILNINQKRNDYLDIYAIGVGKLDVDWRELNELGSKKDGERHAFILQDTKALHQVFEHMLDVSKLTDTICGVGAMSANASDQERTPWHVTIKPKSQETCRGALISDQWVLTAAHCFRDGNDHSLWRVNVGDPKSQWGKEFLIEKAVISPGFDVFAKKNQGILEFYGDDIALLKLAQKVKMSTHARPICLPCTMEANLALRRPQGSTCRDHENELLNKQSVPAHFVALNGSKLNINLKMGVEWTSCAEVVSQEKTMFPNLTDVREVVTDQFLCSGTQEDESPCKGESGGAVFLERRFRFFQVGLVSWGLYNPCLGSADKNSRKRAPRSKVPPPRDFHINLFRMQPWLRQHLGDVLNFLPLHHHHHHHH

B1: RF16-242 (antibody, human IgG4 S228P, lambda, V domains shown)
VH: EVQLLQSGAEVKKPGESLKISCKGSGYSFTSYWIGWVRQMPGKGLEWMGIIYPGDSDTRYSPSFQGQVTISADKSISTAYLQWSSLKASDTAMYYCARRGHYGDYFDYWGQGTLVTVSS
VL: SYELTQPPSVSVSPGQTARITCSGDALPKKYAYWYHQKSGQAPVLVIYEDRRRPSEIPERFSGSSSGTMATLTITGAQVEDEGVYFCYSRDRAGNQRVFGGGTQLTVLG
notes: pH-dependent anti-C2 antibody from a phage display library
Work on B1 yielded a Kd (human C2 K430A) of 91 nM, a Kd (human C2 A436S) of 4.9 nM and a Kd (human C2 H446A) of 16.1 nM. The Kd (human C2 N467A) was 13.4 nM.
